We go through 2 molecules from article PMC11047093.

Series [1] has as its target T1, His-APOBEC2 (Mus musculus, UniProt Q9WV35 1-224).
T1 sequence: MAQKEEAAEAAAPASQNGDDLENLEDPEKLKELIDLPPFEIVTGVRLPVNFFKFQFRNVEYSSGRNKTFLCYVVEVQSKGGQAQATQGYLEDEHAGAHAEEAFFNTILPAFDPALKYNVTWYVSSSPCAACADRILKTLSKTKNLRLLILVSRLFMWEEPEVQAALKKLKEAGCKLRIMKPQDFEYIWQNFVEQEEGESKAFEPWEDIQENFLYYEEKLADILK
In words: MST.

The target of series [2] is T2, His-APOBEC2 E100A (Mus musculus, UniProt Q9WV35 1-224, E100A).
T2 sequence: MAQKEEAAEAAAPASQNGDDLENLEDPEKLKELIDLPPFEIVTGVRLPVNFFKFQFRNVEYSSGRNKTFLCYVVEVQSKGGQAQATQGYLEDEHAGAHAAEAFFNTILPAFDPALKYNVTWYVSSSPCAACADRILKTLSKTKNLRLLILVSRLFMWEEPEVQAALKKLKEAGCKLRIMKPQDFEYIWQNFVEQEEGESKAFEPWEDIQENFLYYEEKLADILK
Briefly: MST.

B1: SP/KLF motif (ssDNA)
DNA: GGCGGCGCGGCCCCGCCCCCTCCTCCGGC
Consider B1, for which, in series [1], the Kd amounted to 926 ± 243 nM. In addition, the binding result in series [2] is listed as “no binding”.

B2: A-tract (poly-A) motif (ssDNA)
DNA: TCTCAAGAAAAAAAAAAAAAGAC
Consider B2, for which the binding result in series [2] is on record as “no binding”.

Usually Kd stands for the constant that tells how readily two partners part at equilibrium.
